Experimental data taken from publication PMC7968997.
Positions count from the first letter of the chain named.

Key:
RBM45 RRM1-2 WT [1] = molecular target: T1, RBM45 RRM1-2 WT (Homo sapiens, UniProt Q8IUH3 23-202); assay: gel filtration, SEC-MALS
T1 sequence: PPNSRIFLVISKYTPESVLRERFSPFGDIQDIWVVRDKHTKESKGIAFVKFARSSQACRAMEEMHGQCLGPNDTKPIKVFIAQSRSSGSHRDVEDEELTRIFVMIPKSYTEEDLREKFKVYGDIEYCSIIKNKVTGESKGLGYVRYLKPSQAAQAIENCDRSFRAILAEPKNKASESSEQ

RBM45 RRM1-2 WT [2] = molecular target: T1, RBM45 RRM1-2 WT; assay: gel filtration, SEC-MALS; remark: listed apart in the source
RBM45 RRM1-2 WT [3] = molecular target: T1, RBM45 RRM1-2 WT; assay: gel filtration, SEC-MALS; remark: listed apart in the source
RBM45 RRM1-2 WT [4] = molecular target: T1, RBM45 RRM1-2 WT; assay: gel filtration
RBM45 RRM1-2 WT [5] = molecular target: T1, RBM45 RRM1-2 WT; assay: fluorescence polarization
[6] = molecular target: T2, RBM45 RRM1-2 F124A/Y165A (RRM1 analog) (Homo sapiens, UniProt Q8IUH3 23-202, F124A;Y165A); assay: fluorescence polarization
T2 sequence: T1 sequence with F102A, Y143A

[7] = molecular target: T3, RBM45 RRM1-2 F29A/F70A (RRM2 analog) (Homo sapiens, UniProt Q8IUH3 23-202, F29A;F70A); assay: fluorescence polarization
T3 sequence: T1 sequence with F7A, F48A

RBM45 RRM1-2 WT [8] = molecular target: T1, RBM45 RRM1-2 WT; assay: crystal structure
RBM45 RRM1-2 WT [9] = molecular target: T1, RBM45 RRM1-2 WT; assay: gel filtration, SEC-MALS; remark: listed apart in the source
RBM45 RRM1-2 WT [10] = molecular target: T1, RBM45 RRM1-2 WT; assay: gel filtration, SEC-MALS; remark: listed apart in the source
RBM45 RRM1-2 WT [11] = molecular target: T1, RBM45 RRM1-2 WT; assay: gel filtration, SEC-MALS; remark: listed apart in the source
RBM45 RRM1-2 WT [12] = molecular target: T1, RBM45 RRM1-2 WT; assay: gel filtration, SEC-MALS; remark: listed apart in the source
RBM45 RRM1-2 WT [13] = molecular target: T1, RBM45 RRM1-2 WT; assay: fluorescence polarization; remark: listed apart in the source
[14] = molecular target: T2, RBM45 RRM1-2 F124A/Y165A (RRM1 analog); assay: fluorescence polarization; remark: listed apart in the source
[15] = molecular target: T3, RBM45 RRM1-2 F29A/F70A (RRM2 analog); assay: fluorescence polarization; remark: listed apart in the source
RBM45 RRM1-2 WT [16] = molecular target: T1, RBM45 RRM1-2 WT; assay: gel filtration, SEC-MALS; remark: listed apart in the source

CGACGGUUUUUUUUUUUUUUGGACGC (ssRNA) [26-mer 2-GAC RNA]: binds (RBM45 RRM1-2 WT [1]).

CGACGGUUUUUUGGACGC (ssRNA) [18-mer 2-GAC RNA]: binds (RBM45 RRM1-2 WT [2]).

CGACGGUUUUUUUUGGACGC (ssRNA) [20-mer 2-GAC RNA]: binds (RBM45 RRM1-2 WT [3]).

CGACGGACGC (ssRNA) [10-mer 2-GAC RNA]: binds (RBM45 RRM1-2 WT [4]).

CGACGACGC (ssRNA) [9-mer 2-GAC RNA]: binds (RBM45 RRM1-2 WT [4]).

GGACGG (ssRNA, m6A at position 3) [GG(m6A)CGG RNA]: binds (RBM45 RRM1-2 WT [5]); binds [6]; binds [7].

CGACGGGACGC (ssDNA) [11-nt ssDNA]: binds (RBM45 RRM1-2 WT [8]).

CGACGGUUUUUUUUUUGGACGC (ssRNA) [22-mer 2-GAC RNA]: binds (RBM45 RRM1-2 WT [9]).

CGACGGGGACGC (ssRNA) [12-mer 2-GAC RNA]: binds (RBM45 RRM1-2 WT [10]).

CGACGGUUUUGGACGC (ssRNA) [16-mer 2-GAC RNA]: binds (RBM45 RRM1-2 WT [11]).

CGACGGGACGC (ssRNA) [11-mer 2-GAC RNA]: binds (RBM45 RRM1-2 WT [12]).

UUUUUU (ssRNA) [polyU 6-mer RNA] was tested, and the Kd (RBM45 RRM1-2 WT [13]) was 57200 ± 10200 nM.

GGACGG (ssDNA) [GGACGG ssDNA] showed a Kd (RBM45 RRM1-2 WT [13]) of 805 ± 108 nM, a Kd [14] of 1210 ± 90 nM and a Kd [15] of 2310 ± 190 nM.

CGACGGUUUUUU (ssRNA) [12-mer GAC-polyU RNA]: binds (RBM45 RRM1-2 WT [16]).

CGACGGUUGGACGC (ssRNA) [14-mer 2-GAC RNA]: binds (RBM45 RRM1-2 WT [11]).
